Measured values: paper doi:10.1101/2021.02.12.430940 (bioRxiv, 2021)

Target: SARS-CoV-2 RBD-mFc (SARS-CoV-2, reference (Wuhan-Hu-1) by …, UniProt P0DTC2)
Experiment: flow cytometry on cells

B1: mAb-82 (antibody, V domains shown)
VH: QVQLVQSGAEVKKPGSSVKVSCKASGGTFSSYAISWVRQAPGQGLEWMGGIIPIFGTANYAQKFQGRVTITADESTSTAYMELSSLRSEDTAVYYCARGNDDSSGYYSHYYYGMDVWGQGTTVTVSS
VL: QTVVTQEPSFSVSPGGTVTLTCGLSSGSVSTSYYPSWYQQTPGQAPRTLIYSTNTRSSGVPDRFSGSILGNKAALTITGAQADDESDYYCVLYMGSGAVFGGGTQLTVL
B1: binds.
